Test results: US20230032737A1 (published 2023)

Target: purified human factor D (from human plasma) (human, UniProt P00746 26-253)
Test: Biacore SPR

Sequence of purified human factor D (from human plasma) (P00746 26-253): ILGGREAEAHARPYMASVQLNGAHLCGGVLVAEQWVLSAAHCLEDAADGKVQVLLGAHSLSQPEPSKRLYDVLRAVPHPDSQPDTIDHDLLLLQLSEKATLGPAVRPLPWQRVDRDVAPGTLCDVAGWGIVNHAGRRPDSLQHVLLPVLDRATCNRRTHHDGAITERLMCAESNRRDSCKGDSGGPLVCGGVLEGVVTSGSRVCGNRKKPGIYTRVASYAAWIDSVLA

Kd [pM]	Binder
153	recombinant chimeric 11-8A1 (variable region of 11-8A1 + constant region of human IgG4) (antibody, V domains shown) VH: EVQLQQSGADLVRPGASVKLSCTTSGFNIKDTYVHWVKQRPEQGLEWIGRIDPANGLTTFDPRFQAKATITADTSSNTAYLQLSSLTSEDTAVYYCTYAMEYWGQGTSVTVSS VL: QIVLTQSPAIMSASPGERVTMTCSARSDVSYMYWYQQKPGSSPRLLIYDTSNLASGVPVRFSASGSGTSYSLTISRMEAEDAATYYCQQWSSYPPWTFGGGTKLEIK
148	mAb 11-8A1 (hybridoma-derived murine anti-human factor D monoclonal antibody) (antibody, V domains shown) VH: EVQLQQSGADLVRPGASVKLSCTTSGFNIKDTYVHWVKQRPEQGLEWIGRIDPANGLTTFDPRFQAKATITADTSSNTAYLQLSSLTSEDTAVYYCTYAMEYWGQGTSVTVSS VL: QIVLTQSPAIMSASPGERVTMTCSARSDVSYMYWYQQKPGSSPRLLIYDTSNLASGVPVRFSASGSGTSYSLTISRMEAEDAATYYCQQWSSYPPWTFGGGTKLEIKR
